Measured values published in patent US20230220042A1 (SHANGHAI JIAO TONG UNIVERSITY SCHOOL OF MEDICINE, published 2023).
Blank lines part the entries; values can stand above or below the molecule they belong to.

Columns and labels:
FcγRIIA^131H = target: T1, FcγRIIA^131H (human, UniProt P12318 34-217, biotin-labeled); assay: ELISA, coated antibody, biotin-FcγR
T1 construct: extracellular domain; Bought protein; also called RIIAH
T1 sequence (looked up): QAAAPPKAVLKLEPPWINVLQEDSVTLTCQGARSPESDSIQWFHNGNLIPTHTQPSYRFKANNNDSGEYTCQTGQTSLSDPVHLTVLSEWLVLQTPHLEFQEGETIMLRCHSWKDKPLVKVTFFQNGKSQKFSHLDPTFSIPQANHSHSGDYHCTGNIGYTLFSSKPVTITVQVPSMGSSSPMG
Method: (§1) One hundred μl (2 μg/mL) of antibody or mutant thereof were added to the enzyme-linked plate to be coated overnight, then the supernatant was discarded. The plate was blocked with PBS containing 1% BSA for 2 hours, and washed with PBST (PBS containing 0.05% Tween 20). Biotin-labeled FcγR extracellular domain protein (Beijing Sino Biological Co., Ltd) of appropriate concentration was added and incubated at room temperature for 1 hour, then the supernatant was discarded and the plate was washed with PBST. The Biotin-labeled protein was detected by incubating with Streptavidin-HRP (BD BioSciences) at room temperature for 1 hour. The supernatant was removed, and the color-developing solution was added for color development for 20-40 minutes to determine the absorbance of 650 nm (A650).
(§2) Anti-human OX40 antibodies containing these new Fc mutation combinations are expressed and the binding property of the mutant antibody to FcγR are analyzed by Enzyme-linked immunosorbent assay (ELISA).

FcγRIIA^131R = target: T2, FcγRIIA^131R (human, UniProt P12318 34-217, biotin-labeled); assay: ELISA, coated antibody, biotin-FcγR
T2 construct: extracellular domain; Bought protein; also called RIIAR
T2 sequence (looked up): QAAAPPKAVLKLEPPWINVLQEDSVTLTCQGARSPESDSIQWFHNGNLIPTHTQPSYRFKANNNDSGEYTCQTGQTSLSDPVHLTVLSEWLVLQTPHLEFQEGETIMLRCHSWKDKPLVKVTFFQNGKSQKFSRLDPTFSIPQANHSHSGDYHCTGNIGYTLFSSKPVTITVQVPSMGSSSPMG
Method: as §1, §2

FcγRIIB = target: T3, FcγRIIB (human, UniProt P31994 43-217, biotin-labeled); assay: ELISA, coated antibody, biotin-FcγR
T3 construct: extracellular domain; Bought protein; also called CD32b
T3 sequence (looked up): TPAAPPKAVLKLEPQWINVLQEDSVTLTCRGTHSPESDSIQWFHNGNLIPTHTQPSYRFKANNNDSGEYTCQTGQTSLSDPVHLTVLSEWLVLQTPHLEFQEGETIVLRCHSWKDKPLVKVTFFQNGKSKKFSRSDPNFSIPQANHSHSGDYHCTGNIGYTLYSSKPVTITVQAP
Method: as §1, §2

FcγRI = target: T4, FcγRI (human, UniProt P12314 16-292, biotin-labeled); assay: ELISA, coated antibody, biotin-FcγR
T4 construct: extracellular domain; Bought protein; also called CD64
Method: as §1, §2

FcγRIIIA^158F = target: T5, FcγRIIIA^158F (human, UniProt P08637 17-208, biotin-labeled); assay: ELISA, coated antibody, biotin-FcγR
T5 construct: extracellular domain; Bought protein; also called RIIIAF
Method: as §1, §2

FcγRIIIA^158V = target: T6, FcγRIIIA^158V (human, UniProt P08637 17-208, biotin-labeled); assay: ELISA, coated antibody, biotin-FcγR
T6 construct: extracellular domain; Bought protein; also called RIIIAV; CD16a 158V
Method: as §1, §2

[1] = target: T7, Biotin-FcγRIIB (human FcγRIIB, Sino Biological) (human, UniProt P31994 43-217, limits assumed, biotin-labeled); assay: NGS after FACS sort of 3T3-displayed LibraryMix for biotin-FcγRIIB binding
T7 construct: Used at 1 µg/ml with Streptavidin-APC for flow cytometry and sorting; also called CD32b
T7 sequence (looked up): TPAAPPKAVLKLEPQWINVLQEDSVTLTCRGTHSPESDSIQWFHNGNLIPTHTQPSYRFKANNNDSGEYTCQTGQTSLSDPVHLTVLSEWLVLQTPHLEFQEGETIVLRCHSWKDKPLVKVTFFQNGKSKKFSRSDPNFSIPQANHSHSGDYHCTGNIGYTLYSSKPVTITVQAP

Biotin-FcγRIIB = target: T8, Biotin-FcγRIIB (human, UniProt P31994 43-217, limits assumed, biotin label); assay: NGS of 3T3 display library C2 flow-sorted for FcγRIIB binding
T8 construct: Soluble labelled protein used to stain and sort the display cells; also called human FcγRIIB; CD32b
T8 sequence (looked up): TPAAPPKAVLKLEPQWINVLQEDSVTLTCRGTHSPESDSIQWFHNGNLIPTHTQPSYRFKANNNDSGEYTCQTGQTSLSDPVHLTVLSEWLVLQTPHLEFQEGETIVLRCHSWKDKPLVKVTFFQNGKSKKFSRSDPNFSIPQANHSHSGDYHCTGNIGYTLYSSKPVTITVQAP

T5 sequence (P08637 17-208): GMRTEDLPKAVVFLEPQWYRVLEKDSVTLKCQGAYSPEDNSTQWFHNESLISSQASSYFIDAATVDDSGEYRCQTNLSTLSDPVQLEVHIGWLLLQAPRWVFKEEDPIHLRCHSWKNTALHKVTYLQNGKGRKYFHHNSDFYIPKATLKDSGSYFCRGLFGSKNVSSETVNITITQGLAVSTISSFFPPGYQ
T4 sequence (P12314 16-292): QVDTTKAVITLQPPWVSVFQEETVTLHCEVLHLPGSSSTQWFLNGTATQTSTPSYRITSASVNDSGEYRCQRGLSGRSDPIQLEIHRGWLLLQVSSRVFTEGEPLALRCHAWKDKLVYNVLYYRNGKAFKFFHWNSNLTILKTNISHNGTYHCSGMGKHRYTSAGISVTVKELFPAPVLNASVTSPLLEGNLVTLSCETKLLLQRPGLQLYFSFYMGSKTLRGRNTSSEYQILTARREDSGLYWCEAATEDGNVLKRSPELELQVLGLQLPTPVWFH
T6 sequence (P08637 17-208 F176V): as the sequence (P08637 17-208) above, with F160V counted along it

Absorbance value (FcγRIIA^131H): 0.57 A650 | Absorbance value (FcγRIIA^131R): 0.26 A650 | Absorbance value (FcγRIIB): 0.76 A650 | Absorbance value (FcγRI): 2.66 A650 | Absorbance value (FcγRIIIA^158F): 0.19 A650 | Absorbance value (FcγRIIIA^158V): 0.96 A650
Molecule: IgG1 (antibody)

Enrichment factor (percentage after sorting/percentage before sorting) [1]: 68.9 | Increased factor (enrichment factor/wild-type enrichment factor) [1]: 92.1
B1: human IgG2 anti-mouse CD40 surface displayed antibody, P271G (antibody, name in EU numbering)
light chain (with the P2A rest): DTVLTQSPALAVSPGERVTISCRASDSVSTLMHWYQQKPGQQPKLLIYLASHLESGVPARFSGSGSGTDFTLTIDPVEADDTATYYCQQSWNDPWTFGGGTKLELKRTVAAPSVFIFPPSDEQLKSGTASVVCLLNNFYPREAKVQWKVDNALQSGNSQESVTEQDSKDSTYSLSSTLTLSKADYEKHKVYACEVTHQGLSSPVTKSFNRGECGSGATNFSLLKQAGDVEENPG
heavy chain: EVQLVESDGGLVQPGRSLKLPCAASGFTFSDYYMAWVRQAPTKGLEWVASISYDGSSTYYRDSVKGRFTISRDNAKSTLYLQMDSLRSEDTATYYCGRHSSYFDYWGQGVMVTVSSASTKGPSVFPLAPCSRSTSESTAALGCLVKDYFPEPVTVSWNSGALTSGVHTFPAVLQSSGLYSLSSVVTVPSSNFGTQTYTCNVDHKPSNTKVDKTVERKCCVECPPCPAPPVAGPSVFLFPPKPKDTLMISRTPEVTCVVVDVSHEDGEVQFNWYVDGVEVHNAKTKPREEQFNSTFRVVSVLTVVHQDWLNGKEYKCKVSNKGLPAPIEKTISKTKGQPREPQVYTLPPSREEMTKNQVSLTCLVKGFYPSDIAVEWESNGQPENNYKTTPPMLDSDGSFFLYSKLTVDKSRWQQGNVFSCSVMHEALHNHYTQKSLSLSPGKLEPPPSTVSNMATVAVLVVLGAAIVTGAVVAFVMKMRRRNTGGKGGDYALAPGSQTSDLSLPDCKVMVHDPHSLA
notes: m1 with this Fc mutation (Eu numbering); copies: 2 + 2

enrichment factor, percentage after 2nd sorting/percentage after 1st sorting (Biotin-FcγRIIB): 6.97 ratio | enrichment factor, percentage after 3rd sorting/percentage after 2nd sorting (Biotin-FcγRIIB): 12.6 ratio | percentage after 1st sorting (Biotin-FcγRIIB): 0% | percentage after 2nd sorting (Biotin-FcγRIIB): 0.01% | percentage after 3rd sorting (Biotin-FcγRIIB): 0.11%
B2: human IgG2 anti-mouse CD40 surface displayed antibody, V266L/S267E/H268S/E269V/P271C (antibody, name in EU numbering)
light chain (with the P2A rest): DTVLTQSPALAVSPGERVTISCRASDSVSTLMHWYQQKPGQQPKLLIYLASHLESGVPARFSGSGSGTDFTLTIDPVEADDTATYYCQQSWNDPWTFGGGTKLELKRTVAAPSVFIFPPSDEQLKSGTASVVCLLNNFYPREAKVQWKVDNALQSGNSQESVTEQDSKDSTYSLSSTLTLSKADYEKHKVYACEVTHQGLSSPVTKSFNRGECGSGATNFSLLKQAGDVEENPG
heavy chain: EVQLVESDGGLVQPGRSLKLPCAASGFTFSDYYMAWVRQAPTKGLEWVASISYDGSSTYYRDSVKGRFTISRDNAKSTLYLQMDSLRSEDTATYYCGRHSSYFDYWGQGVMVTVSSASTKGPSVFPLAPCSRSTSESTAALGCLVKDYFPEPVTVSWNSGALTSGVHTFPAVLQSSGLYSLSSVVTVPSSNFGTQTYTCNVDHKPSNTKVDKTVERKCCVECPPCPAPPVAGPSVFLFPPKPKDTLMISRTPEVTCVVVDLESVDCEVQFNWYVDGVEVHNAKTKPREEQFNSTFRVVSVLTVVHQDWLNGKEYKCKVSNKGLPAPIEKTISKTKGQPREPQVYTLPPSREEMTKNQVSLTCLVKGFYPSDIAVEWESNGQPENNYKTTPPMLDSDGSFFLYSKLTVDKSRWQQGNVFSCSVMHEALHNHYTQKSLSLSPGKLEPPPSTVSNMATVAVLVVLGAAIVTGAVVAFVMKMRRRNTGGKGGDYALAPGSQTSDLSLPDCKVMVHDPHSLA
notes: As m1 with the Fc mutations
